Legend:
[1] = target: T1, recombinant human sIL-6R (human, UniProt P08887 20-358, limits assumed); test: ELISA: Xceptor captured on anti-human IgG-Fc, sIL-6R added, detected with anti-IL-6R-biotin
T1 construct: Bought; also called human soluble IL6R
T1 sequence (looked up): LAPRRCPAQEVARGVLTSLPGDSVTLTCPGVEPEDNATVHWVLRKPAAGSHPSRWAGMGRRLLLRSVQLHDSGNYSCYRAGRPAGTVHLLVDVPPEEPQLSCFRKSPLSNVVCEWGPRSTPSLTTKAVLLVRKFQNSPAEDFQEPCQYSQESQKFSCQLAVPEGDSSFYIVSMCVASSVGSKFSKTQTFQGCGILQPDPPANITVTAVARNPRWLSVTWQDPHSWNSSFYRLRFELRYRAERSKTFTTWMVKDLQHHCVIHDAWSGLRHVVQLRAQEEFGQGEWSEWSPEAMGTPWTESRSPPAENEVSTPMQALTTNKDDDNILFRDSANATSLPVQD
Method: Added to each well of a 96-well plate was 100 μl goat anti-human IgG-Fc (ICN Pharmaceuticals, Costa Mesa, Calif.) from a 2 μg/ml solution in PBS, pH 7.2-7.4. The plates were covered, and incubated overnight at 4° C. After washing four times with PBS-T, 250 μl Blocking buffer (PBS-T with 3% BSA or 10% normal goat serum) was added to each well, the plate was covered, and incubated at room temperature for 2 hours (or at 4° C. overnight). […] After washing the plate five times with PBS-T, added in duplicate wells was 100 μl/well recombinant human sIL-6R(R&D Systems) from a […] solution in Working buffer, the plate was covered, and incubated at room temperature for about 1 to 2 hours. After washing the plate five times with PBS-T, added 100 μl/well anti-human IL-6R-biotin (R&D Systems) from a 100 ng/ml solution in Working buffer, the plate was covered, and incubated at room temperature for about 1 to 2 hours. After washing the plate five times with PBS-T, 100 μl per well horse radish peroxidase-conjugated streptavidin (Zymed, San Francisco, Calif.) diluted 1:4,000 in Working buffer was added, the plate was covered, and incubated at room temperature for 30 minutes. After washing the plate six times with PBS-T, 100 μl per well 3,3,5,5-tetramentylbenzidine (TMB) substrate solution (Pierce, Rockford, Ill.) was added for about 3 to 5 minutes and then the reaction was stopped with 50 μl Stop buffer (1N H₂SO₄) per well. The absorbance of each well was read at 450 nm.

[2] = target: T2, recombinant human TNF-α (human, UniProt P01375 77-233); test: ELISA: Xceptor captured on anti-human IgG-Fc, rhTNF-α added, detected with anti-TNF-α-biotin
T2 construct: also called rhTNFα
Method: Added to each well of a 96-well plate was 100 μl goat anti-human IgG-Fc (ICN Pharmaceuticals, Costa Mesa, Calif.) from a 2 μg/ml solution in PBS, pH 7.2-7.4. The plate was covered, and incubated overnight at 4° C. After washing four times with PBS-T, 250 μl Blocking buffer was added to each well, the plate was covered, and incubated at room temperature for 2 hours (or at 4° C. overnight). […] After washing the plate five times with PBS-T, 100 μl per well horse radish peroxidase-conjugated streptavidin (Jackson ImmunoResearch, West Grove, Pa.) diluted 1:1,000 in Working buffer was added, the plate was covered, and incubated at room temperature for 30 minutes. After washing the plate six times with PBS-T, 100 μl per well 3,3,5,5-tetramentylbenzidine (TMB) substrate solution (Pierce, Rockford, Ill.) was added for about 3 to 5 minutes and then the reaction was stopped with 50 μl Stop buffer (1N H₂SO₄) per well. The absorbance of each well was read at 450 nm.

[3] = target: T2, recombinant human TNF-α; test: ELISA: plate-coated HIL-6, Xceptor, then rhTNF-α, detected with anti-TNF-α-biotin (simultaneous binding)
Method: The plate was covered, and incubated overnight at 4° C. […] The absorbance of each well was read at 450 nm.

[4] = target: TNFα (Biacore analyte of Example 12) (UniProt P01375 77-233, limits assumed); test: SPR (Biacore T100): binder captured by anti-human Fc, TNFα injected
Text: The unoccupied sites of the activated surface were blocked by ethanolamine. […] At the end of the cycle, the surface was regenerated gently using 3M MgCl₂ which dissociates protein bound to anti hFc capture antibody. […] The value of this parameter was then fixed and the data from the low density surface were used to calculate the association rate constant, kₐ and the Rₘₐₓ. This strategy maximizes signal-to-noise for the dissociation phase data and reduces the mass transport limitation for the association phase data. BIAevaluation software was used to perform these analyses.

T2 sequence (P01375 77-233 limits assumed): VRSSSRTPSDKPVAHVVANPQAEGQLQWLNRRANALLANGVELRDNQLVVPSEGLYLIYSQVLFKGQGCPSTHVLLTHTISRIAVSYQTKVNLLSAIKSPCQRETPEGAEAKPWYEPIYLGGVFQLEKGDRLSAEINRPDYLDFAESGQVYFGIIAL
Sequence of TNFα (Biacore analyte of Example 12) (P01375 77-233 limits assumed): as above

B1: TRU(XT6)-1019 (Fc fusion)
chain: LPAQVAFTPYAPEPGSTCRLREYYDQTAQMCCSKCSPGQHAKVFCTKTSDTVCDSCEDSTYTQLWNWVPECLSCGSRCSSDQVETQACTREQNRICTCRPGWYCALSKQEGCRLCAPLRKCRPGFGVARPGTETSDVVCKPCAPGTFSNTTSSTDICRPHQICNVVAIPGNASMDAVCTSTSPTRSMAPGAVHLPQPVSTRSQHTQPTPEPSTAPSTSFLLPMGPSPPAEGSTGDTGEPKSSDKTHTCPPCPAPEAAGAPSVFLFPPKPKDTLMISRTPEVTCVVVDVSHEDPEVKFNWYVDGVEVHNAKTKPREEQYNSTYRVVSVLTVLHQDWLNGKAYACAVSNKALPAPIEKTISKAKGQPREPQVYTLPPSRDELTKNQVSLTCLVKGFYPSDIAVEWESNGQPENNYKTTPPVLDSDGSFFLYSKLTVDKSRWQQGNVFSCSVMHEALHNHYTQKSLSLSPGQRHNNSSLNTRTQKARHSPNSEVQLLESGGGLVQPGGSLRLSCAASGFTFSWYLMHWVRQAPGKGLEWVSGIWPSGGHTLYADSVKGRFTISRDNSKNTLYLQMNSLRAEDTAVYYCAREPLLWFGELSYNWFDPWGQGTLVTVSSGGGGSGGGGSGGGGSQDIQMTQSPSSVSASVGDRVTITCRASQGISSWLAWYQQKPGKAPKLLIYAASSLQSGVPSRFSGSGSGTDFTLTISSLQPEDFATYYCQQANSFPLTFGGGTKVEIK
notes: not trimmed; also called Xceptor TNFRSF1B::anti-HIL6
**Q.** Does B1 bind [1]?
**A.** no binding

**Q.** Does B1 bind [2]?
**A.** binds

B2: TRU(XT6)-1006 (Fc fusion)
chain: LPAQVAFTPYAPEPGSTCRLREYYDQTAQMCCSKCSPGQHAKVFCTKTSDTVCDSCEDSTYTQLWNWVPECLSCGSRCSSDQVETQACTREQNRICTCRPGWYCALSKQEGCRLCAPLRKCRPGFGVARPGTETSDVVCKPCAPGTFSNTTSSTDICRPHQICNVVAIPGNASMDAVCTSTSPTRSMAPGAVHLPQPVSTRSQHTQPTPEPSTAPSTSFLLPMGPSPPAEGSTGDTGEPKSSDKTHTCPPCPAPEAAGAPSVFLFPPKPKDTLMISRTPEVTCVVVDVSHEDPEVKFNWYVDGVEVHNAKTKPREEQYNSTYRVVSVLTVLHQDWLNGKAYACAVSNKALPAPIEKTISKAKGQPREPQVYTLPPSRDELTKNQVSLTCLVKGFYPSDIAVEWESNGQPENNYKTTPPVLDSDGSFFLYSKLTVDKSRWQQGNVFSCSVMHEALHNHYTQKSLSLSPGQRHNNSSLNTRTQKARHSPNSEVQLLESGGGLVQPGGSLRLSCAASGFTFSQYNMIWVRQAPGKGLEWVSWISSSGGTEYADSVKGRFTISRDNSKNTLYLQMNSLRAEDTAVYYCAKDRGYGSGSYGAYDAFDIWGQGTMVTVSSGGGGSGGGGSGGGGSQDIQMTQSPSSLSASVGDRVTITCQTSQSIDRYLNWYQQKAGEAPKLLIYAASSLQSGVPSRFSGSGSGTDFTLTISSLQPEDFASYYCQQSYRTPRTFGQGTKVEIK
notes: not trimmed; also called Xceptor TNFRSF1B::HIL6
**Q.** Does B2 bind [3]?
**A.** binds

B3: TRU(XT6)-1058 (Fc fusion)
chain: LPAQVAFTPYAPEPGSTCRLREYYDQTAQMCCSKCSPGQHAKVFCTKTSDTVCDSCEDSTYTQLWNWVPECLSCGSRCSSDQVETQACTREQNRICTCRPGWYCALSKQEGCRLCAPLRKCRPGFGVARPGTETSDVVCKPCAPGTFSNTTSSTDICRPHQICNVVAIPGNASMDAVCTSTSPTRSMAPGAVHLPQPVSTRSQHTQPTPEPSTAPSTSFLLPMGPSPPAEGSTGDTGEPKSSDKTHTCPPCPAPEAAGAPSVFLFPPKPKDTLMISRTPEVTCVVVDVSHEDPEVKFNWYVDGVEVHNAKTKPREEQYNSTYRVVSVLTVLHQDWLNGKAYACAVSNKALPAPIEKTISKAKGQPREPQVYTLPPSRDELTKNQVSLTCLVKGFYPSDIAVEWESNGQPENNYKTTPPVLDSDGSFFLYSKLTVDKSRWQQGNVFSCSVMHEALHNHYTQKSLSLSPGQRHNNSSLNTRTQKARHSPNSEVQLLESGGGLVQPGGSLRLSCAASGFTFSMYTMHWVRQAPGKGLEWVSWISPSGGWTKYADSVKGRFTISRDNSKNTLYLQMNSLRAEDTAVYYCAVSPWGGPFDYWGQGTLVTVSSGGGGSGGGGSGGGGSQDIQMTQSPSTLSASVGDRVTITCRASQSISSWLAWYQQKPGKAPKLLIYKASTLESGVPSRFSAGGSGTEFTLTISSLQPDDFGTYYCQQYNSYSLTFGGGTKVEII
notes: as for B1
**Q.** Which results are given for B3?
**A.** binding result [1]: no binding; binding result [2]: binds

B4: TRU(XT6)-1002 (Fc fusion)
chain: LPAQVAFTPYAPEPGSTCRLREYYDQTAQMCCSKCSPGQHAKVFCTKTSDTVCDSCEDSTYTQLWNWVPECLSCGSRCSSDQVETQACTREQNRICTCRPGWYCALSKQEGCRLCAPLRKCRPGFGVARPGTETSDVVCKPCAPGTFSNTTSSTDICRPHQICNVVAIPGNASMDAVCTSTSPTRSMAPGAVHLPQPVSTRSQHTQPTPEPSTAPSTSFLLPMGPSPPAEGSTGDTGEPKSSDKTHTCPPCPAPEAAGAPSVFLFPPKPKDTLMISRTPEVTCVVVDVSHEDPEVKFNWYVDGVEVHNAKTKPREEQYNSTYRVVSVLTVLHQDWLNGKAYACAVSNKALPAPIEKTISKAKGQPREPQVYTLPPSRDELTKNQVSLTCLVKGFYPSDIAVEWESNGQPENNYKTTPPVLDSDGSFFLYSKLTVDKSRWQQGNVFSCSVMHEALHNHYTQKSLSLSPGQRHNNSSLNTRTQKARHSPNSEVQLLESGGGLVQPGGSLRLSCAASGFTFSFYQMHWVRQAPGKGLEWVSGIYPSGGYTKYADSVKGRFTISRDNSKNTLYLQMNSLRAEDTAVYYCARDLGYGSSWYYFDYWGQGTLVTVSSGGGGSGGGGSGGGGSQSALTQPASVSGSPGQSITISCSGTDSDVGGYNHVSWYQQHPGKAPKLIIYDVDHRPSGISNRFSGSKSGNTASLTISGLQAEDEADYYCSSYRSGSTYVFGTGTKVTVL
notes: also called Xceptor TNFRSF1B::anti-HIL6
**Q.** How did the Kd [4] turn out when B4 was run?
**A.** 3.1 pM

**Q.** What about the koff [4] of the same binder?
**A.** 0.00014 s⁻¹

**Q.** And the kon [4]?
**A.** 4.7e+07 M⁻¹ s⁻¹

**Q.** Does B4 bind [1]?
**A.** no binding

B5: TRU(X6T)-1019 (Fc fusion)
chain: EVQLLESGGGLVQPGGSLRLSCAASGFTFSWYLMHWVRQAPGKGLEWVSGIWPSGGHTLYADSVKGRFTISRDNSKNTLYLQMNSLRAEDTAVYYCAREPLLWFGELSYNWFDPWGQGTLVTVSSGGGGSGGGGSGGGGSQDIQMTQSPSSVSASVGDRVTITCRASQGISSWLAWYQQKPGKAPKLLIYAASSLQSGVPSRFSGSGSGTDFTLTISSLQPEDFATYYCQQANSFPLTFGGGTKVEIKTGEPKSSDKTHTCPPCPAPEAAGAPSVFLFPPKPKDTLMISRTPEVTCVVVDVSHEDPEVKFNWYVDGVEVHNAKTKPREEQYNSTYRVVSVLTVLHQDWLNGKAYACAVSNKALPAPIEKTISKAKGQPREPQVYTLPPSRDELTKNQVSLTCLVKGFYPSDIAVEWESNGQPENNYKTTPPVLDSDGSFFLYSKLTVDKSRWQQGNVFSCSVMHEALHNHYTQKSLSLSPGQRHNNSSLNTRTQKARHSPNSLPAQVAFTPYAPEPGSTCRLREYYDQTAQMCCSKCSPGQHAKVFCTKTSDTVCDSCEDSTYTQLWNWVPECLSCGSRCSSDQVETQACTREQNRICTCRPGWYCALSKQEGCRLCAPLRKCRPGFGVARPGTETSDVVCKPCAPGTFSNTTSSTDICRPHQICNVVAIPGNASMDAVCTSTSPTRSMAPGAVHLPQPVSTRSQHTQPTPEPSTAPSTSFLLPMGPSPPAEGSTGD
notes: also called Xceptor in the reverse orientation
**Q.** What does the source list for B5?
**A.** binding result [1]: no binding; binding result [2]: binds

Source: patent US20110152173A1 (EMERGENT PRODUCT DEVELOPMENT SEATTLE, published 2011)
